Test results taken from article PMC7954794, “Protein context shapes the specificity of SH3 domain-mediated interactions in vivo” (Nature Communications, 2021).

Test system: PPIs identified as affected by the SH3 domain deletions
Assay: Liquid DHFR-PCA low-throughput validation of PPIs affected by SH3 deletion (Fig. S1D-E)
Assay type: cell-based, Saccharomyces cerevisiae
Details: label = prey, liquid DHFR-PCA, prey _1 = lost, _2 = gained in screen
In short: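 Yeast diploids from DHFR-PCA mating grown 48 h in synthetic complete MSG medium pH 6.0 with NAT and HPH, normalized to 1 OD and diluted to 0.1 OD in liquid PCA selection medium. Growth followed by OD every 15 min for 72 h at 30 °C.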

Row | Molecule | Ratio (Deletedscore / WTscore) (bait CYK3) | Ratio (Deletedscore / WTscore) (bait LSB3) | Ratio (Deletedscore / WTscore) (bait HSE1)
1 | YIL033C_2 (protein, UniProt P07278 2-416, looked up) cAMP-dependent protein kinase …: VSSLPKESQAELQLFQNEINAANPSDFLQFSANYFNKRLEQQRAFLKAREPEFKAKNIVLFPEPEESFSRPQSAQSQSRSRSSVMFKSPFVNEDPHSNVFKSGFNLDPHEQDTHQQAQEEQQHTREKTSTPPLPMHFNAQRRTSVSGETLQPNNFDDWTPDHYKEKSEQQLQRLEKSIRNNFLFNKLDSDSKRLVINCLEEKSVPKGATIIKQGDQGDYFYVVEKGTVDFYVNDNKVNSSGPGSSFGELALMYNSPRAATVVATSDCLLWALDRLTFRKILLGSSFKKRLMYDDLLKSMPVLKSLTTYDRAKLADALDTKIYQPGETIIREGDQGENFYLIEYGAVDVSKKGQGVINKLKDHDYFGEVALLNDLPRQATVTATKRTKVATLGKSGFQRLLGPAVDVLKLNDPTRH | 1.015 |  | 
2 | YLR196W_2 (protein, UniProt P21304 1-576, looked up) Periodic tryptophan protein 1: MISATNWVPRGFSSEFPEKYVLDDEEVERINQLAQLNLDDAKATLEEAEGESGVEDDAATGSSNKLKDQLDIDDDLKEYNLEEYDDEEIADNEGGKDVSMFPGLSNDSDVKFHEGEKGEDPYISLPNQEDSQEEKQELQVYPSDNLVLAARTEDDVSYLDIYVYDDGAGFHSSDIPVEEGDEADPDVARGLVRDPALYVHHDLMLPAFPLCVEWLDYKVGSNSEEAANYAAIGTFDPQIEIWNLDCVDKAFPDMILGEPLDNSMVSLKSKKKKKKSKTGHITTHHTDAVLSMAHNKYFRSVLASTSADHTVKLWDLNSGNAARSLASIHSNKNVSSSEWHMLNGSILLTGGYDSRVALTDVRISDESQMSKYWSAMAGEEIETVTFASENIILCGTDSGNVYSFDIRNNENRKPVWTLKAHDAGISTLCSNKFIPGMMSTGAMGEKTVKLWKFPLDDATNTKGPSMVLSRDFDVGNVLTSSFAPDIEVAGTMVIGGVNKVLKLWDVFTNRSVRKSFKSELENVQARAKEEAQKIGKSSRIARKYTSNDNPDTVITIDDQGEDEEEREGGDEHDDMA |  | 1.184 | 
3 | YFR040W_2 (protein, UniProt P43612 1-1002, looked up) SIT4-associating protein …: MSFWPFGQNLNHSNINKILDEYFHVLHELERINPSVGKAIPAIFNNVQERGTSDSLDSIPEEYSHGDEVKTARGDQKSRFEKDDQQERYEKEEEERSMNSSESSTTSFSSGSTSKTDLDEEDISNATAPMMVTTKNLDNSFIERMLVETELLNELSRQNKTLLDFICFGFFFDKKTNKKVNNMEYLVDQLMECISKIKTATTVDLNNLIDYQEQQQLDDSSQEDVYVESDTEQEEEKEDDNNSNNKKRRKRGSSSFGNDDINNNDDDDDANEDDESAYLTKATIISEIFSLDIWLISESLVKNQSYLNKIWSIINQPNFNSENSPLVPIFLKINQNLLLTRQDQYLNFIRTERSFVDDMLKHVDISLLMDFFLKIISTDKIESPTGIIELVYDQNLISKCLSFLNNKESPADIQACVGDFLKALIAISANAPLDDISIGPNSLTRQLASPESIAKLVDIMINQRGAALNTTVSIVIELIRKNNSDYDQVNLLTTTIKTHPPSNRDPIYLGYLLRKFSNHLSDFFQIILDIENDANIPLHENQLHEKFKPLGFERFKVVELIAELLHCSNMGLMNSKRAERIARRRDKVRSQLSHHLQDALNDLSIEEKEQLKTKHSPTRDTDHDLKNNNGKIDNDNNDNDDESDYGDEIDESFEIPYINMKQNIKLRTDPTVGDLFKIKLYDTRIVSKIMELFLTHPWNNFWHNVIFDIIQQIFNGRMDFSYNSFLVLSLFNLKSSYQFMTDIVISDEKGTDVSRFSPVIRDPNFDFKITTDFILRGYQDSYKFYELRKMNLGYMGHIVLIAEEVVKFSKLYKVELISPDIQVILQTEEWQYYSEEVLNETRMMYSKILGGGSYIDDGNGNIIPQLPDNTTVLTPNGDASNNNEILDSDTGSSNGTSGGGQLINVESLEEQLSLSTESDLHNKLREMLINRAQEDVDNKNTENGVFILGPPEDKNSNSNINNTNHNSNNSNNNDNNDNNDNDNDNTRNYNEDADNDNDYDHE |  | 1.731 | 
4 | YLR330W_2 (protein, UniProt Q12114 1-671, looked up) Chitin biosynthesis protein …: MSSVDVLLTVGKLDASLALLTTQDHHVIEFPTVLLPENVKAGSIIKMQVSQNLEEEKKQRNHFKSIQAKILEKYGTHKPESPVLKIVNVTQTSCVLAWDPLKLGSAKLKSLILYRKGIRSMVIPNPFKVTTTKISGLSVDTPYEFQLKLITTSGTLWSEKVILRTHKMTDMSGITVCLGPLDPLKEISDLQISQCLSHIGARPLQRHVAIDTTHFVCNDLDNEESNEELIRAKHNNIPIVRPEWVRACEVEKRIVGVRGFYLDADQSILKNYTFPPVNEEELSYSKENEPVAEVADENKMPEDTTDVEQVASPNDNESNPSEAKEQGEKSGHETAPVSPVEDPLHASTALENETTIETVNPSVRSLKSEPVGTPNIEENKADSSAEAVVEEPNEAVAESSPNEEATGQKSEDTDTHSNEQADNGFVQTEEVAENNITTESAGENNEPADDAAMEFGRPEAEIETPEVNESIEDANEPAEDSNEPVEDSNKPVKDSNKPVEDSNKPVEDSNKPVEDSNKPVEDANEPVEDTSEPVEDAGEPVQETNEFTTDIASPRHQEEDIELEAEPKDATESVAVEPSNEDVKPEEKGSEAEDDINNVSKEAASGESTTHQKTEASASLESSAVTEEQETTEAEVNTDDVLSTKEAKKNTGNSNSNKKKNKKNKKKGKKK |  | 1.34 | 
5 | YMR216C_2 (protein, UniProt Q03656 1-742, looked up) Serine/threonine-protein …: MGSSINYPGFVTKSAHLADTSTDASISCEEATSSQEAKKNFFQRDYNMMKKAPAPTKSKLSLALQTSKSSSSANGTVQEDTSSKTEDFSTKSIKKKPDSGVESHVSIQSDSGPQSDSDLDSDSSISSCDERNEESLKDYRPGGYHPAFKGEPYKDARYILVRKLGWGHFSTVWLAKDMVNNTHVAMKIVRGDKVYTEAAEDEIKLLQRVNDADNTKEDSMGANHILKLLDHFNHKGPNGVHVVMVFEVLGENLLALIKKYEHRGIPLIYVKQISKQLLLGLDYMHRRCGIIHTDIKPENVLMEIGDVEGIVQMVEALDKQKREAKRLQRHVSRSSDITANDSSDEKWAECQTSMPCGSSSNSKSRSIEKDLSKRCFRRPRRHTIITGSQPLPSPISSSNFFEMRAHFCGSSHNSFSSVSGNRNIPSSINNNSINNGIGIKNSNNSFLNSVPHSVTRMFINEDSNDNNNNDNSKNKNNNNNNSNNNNNEDIMNTPLHEEQLADSLSTFDISNISQSSDTNGPYISNTMDSNSNVSTDINSPENLIQIKIADLGNACWYDEHYTNSIQTREYRSPEVLLGAPWGCGADIWSTACLIFELITGDFLFEPDEGHSYTKDDDHIAQIIELLGELPSYLLRNGKYTRTFFNSRGLLRNISKLKFWPLEDVLTEKYKFSKDEAKEISDFLSPMLQLDPRKRADAGGLVNHPWLKDTLGMEEIRVPDRELYGSGSDIPGWFEEVRDHKRH |  | 1.244 | 
6 | YML035C_2 (protein, UniProt P15274 1-810, looked up) AMP deaminase: MDNQATQRLNDLSLEPAPSHDEQDGSGLVIDIDQRKIGDEQAGVVVDDETPPLEQQDSHESLAADSRNANFSYHENQQLLENGTKQLALDEHDSHSAILEQPSHSTNCSSSNIAAMNKGHDSADHASQNSGGKPRTLSASAQHILPETLKSFAGAPVVNKQVRTSASYKMGMLADDASQQFLDDPSSELIDLYSKVAECRNLRAKYQTISVQNDDQNPKNKPGWVVYPPPPKPSYNSDTKTVVPVTNKPDAEVFDFTKCEIPGEDPDWEFTLNDDDSYVVHRSGKTDELIAQIPTLRDYYLDLEKMISISSDGPAKSFAYRRLQYLEARWNLYYLLNEYQETSVSKRNPHRDFYNVRKVDTHVHHSACMNQKHLLRFIKHKLRHSKDEKVIFRDGKLLTLDEVFRSLHLTGYDLSIDTLDMHAHKDTFHRFDKFNLKYNPIGESRLREIFLKTNNYIKGTYLADITKQVIFDLENSKYQNCEYRISVYGRSLDEWDKLASWVIDNKVISHNVRWLVQIPRLYDIYKKTGIVQSFQDICKNLFQPLFEVTKNPQSHPKLHVFLQRVIGFDSVDDESKVDRRFHRKYPKPSLWEAPQNPPYSYYLYYLYSNVASLNQWRAKRGFNTLVLRPHCGEAGDPEHLVSAYLLAHGISHGILLRKVPFVQYLYYLDQVGIAMSPLSNNALFLTYDKNPFPRYFKRGLNVSLSTDDPLQFSYTREPLIEEYSVAAQIYKLSNVDMCELARNSVLQSGWEAQIKKHWIGKDFDKSGVEGNDVVRTNVPDIRINYRYDTLSTELELVNHFANFKRTIEEK |  | 1.062 | 1.186
7 | YBR177C_2 (protein, UniProt P38295 1-451, looked up) Medium-chain fatty acid ethyl …: MSEVSKWPAINPFHWGYNGTVSHIVGENGSIKLHLKDNKEQVDFDEFANKYVPTLKNGAQFKLSPYLFTGILQTLYLGAADFSKKFPVFYGREIVKFSDGGVCTADWLIDSWKKDYEFDQSTTSFDKKKFDKDEKATHPEGWPRLQPRTRYLKDNELEELREVDLPLVVILHGLAGGSHEPIIRSLAENLSRSGRFQVVVLNTRGCARSKITTRNLFTAYHTMDIREFLQREKQRHPDRKLYAVGCSFGATMLANYLGEEGDKSPLSAAATLCNPWDLLLSAIRMSQDWWSRTLFSKNIAQFLTRTVQVNMGELGVPNGSLPDHPPTVKNPSFYMFTPENLIKAKSFKSTREFDEVYTAPALGFPNAMEYYKAASSINRVDTIRVPTLVINSRDDPVVGPDQPYSIVEKNPRILYCRTDLGGHLAYLDKDNNSWATKAIAEFFTKFDELVV |  | 1.519 | 
8 | YNL229C_2 (protein, UniProt P23202 2-354, looked up) Transcriptional regulator URE2: MNNNGNQVSNLSNALRQVNIGNRNSNTTTDQSNINFEFSTGVNNNNNNNSSSNNNNVQNNNSGRNGSQNNDNENNIKNTLEQHRQQQQAFSDMSHVEYSRITKFFQEQPLEGYTLFSHRSAPNGFKVAIVLSELGFHYNTIFLDFNLGEHRAPEFVSVNPNARVPALIDHGMDNLSIWESGAILLHLVNKYYKETGNPLLWSDDLADQSQINAWLFFQTSGHAPMIGQALHFRYFHSQKIASAVERYTDEVRRVYGVVEMALAERREALVMELDTENAAAYSAGTTPMSQSRFFDYPVWLVGDKLTIADLAFVPWNNVVDRIGINIKIEFPEVYKWTKHMMRRPAVIKALRGE |  |  | 0.8445
